Source: the supplement of paper PMC9112550, “Optimization of the antimicrobial peptide Bac7 by deep mutational scanning” (BMC Biology, 2022)

System: Escherichia coli TOP10
Assay: shrunken log2 fold change of peptide-encoding DNA abundance (4.5 h post-induction vs induction); higher = less antimicrobial activity (less host growth inhibition)
Conditions: time post-induction: 4.5 h; library: site-saturation at positions 5, 18, 19, 20
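Note: peptides expressed intracellularly from a pBAD plasmid library in pooled LB shake-flask culture, induced with 0.3% L-arabinose, DNA abundance read by NGS, three biological replicates, DESeq2 with apeglm shrinkage.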

Sequence | shrunken log2 fold change
RRIRDRPPRLPRPRPRPIQLPRP | 0.0401
RRIRTRPPRLPRPRPRPHFWPRP | 0.0783
RRIRNRPPRLPRPRPRPGTTPRP | 0.0321
RRIRERPPRLPRPRPRPKRCPRP | -0.0369
RRIRVRPPRLPRPRPRPKTDPRP | -0.202
RRIRIRPPRLPRPRPRPLEDPRP | -0.0413
RRIRRRPPRLPRPRPRPKFKPRP | -0.046
RRIRGRPPRLPRPRPRPINAPRP | 0.288
RRIRLRPPRLPRPRPRPEYPPRP | -0.336
RRIRERPPRLPRPRPRPFTRPRP | -0.0106
RRIRWRPPRLPRPRPRPVHMPRP | -0.0785
RRIRQRPPRLPRPRPRPPNRPRP | -0.131
RRIRIRPPRLPRPRPRPNDNPRP | -0.912
RRIRQRPPRLPRPRPRPFNAPRP | -0.233
RRIRGRPPRLPRPRPRPNMGPRP | 0.269
RRIRIRPPRLPRPRPRPAMSPRP | -0.0178
RRIRKRPPRLPRPRPRPAWAPRP | 0.577
RRIRDRPPRLPRPRPRPRTLPRP | 0.14
RRIRMRPPRLPRPRPRPNGYPRP | 0.0495
RRIRRRPPRLPRPRPRPYNMPRP | -0.499
RRIRPRPPRLPRPRPRPDRKPRP | -0.124
RRIRQRPPRLPRPRPRPRRGPRP | 0.502
RRIRERPPRLPRPRPRPWCGPRP | -0.245
RRIRQRPPRLPRPRPRPQPEPRP | -0.0839
RRIRMRPPRLPRPRPRPEITPRP | 3.07

Sequence | shrunken log2 fold change
RRIRIRPPRLPRPRPRPFVCPRP | -0.797
RRIRIRPPRLPRPRPRPPQGPRP | 0.123
RRIRRRPPRLPRPRPRPHDHPRP | 3.24
RRIRRRPPRLPRPRPRPGLAPRP | 0.763
RRIRPRPPRLPRPRPRPRMLPRP | 0.00647
RRIRQRPPRLPRPRPRPPAHPRP | 0.0556
RRIRVRPPRLPRPRPRPEMSPRP | 0.0206
RRIRERPPRLPRPRPRPPHKPRP | 0.0221
RRIRVRPPRLPRPRPRPTRNPRP | 0.0987
RRIRDRPPRLPRPRPRPEHMPRP | 0.05
RRIRVRPPRLPRPRPRPPPRPRP | 1.03
RRIRCRPPRLPRPRPRPGPGPRP | 0.709
RRIRTRPPRLPRPRPRPSQFPRP | -0.302
RRIRERPPRLPRPRPRPQFMPRP | 0.0848
RRIRNRPPRLPRPRPRPREIPRP | 0.0831
RRIRGRPPRLPRPRPRPSQHPRP | 0.0187
RRIRQRPPRLPRPRPRPVCVPRP | 0.18
RRIRDRPPRLPRPRPRPVNVPRP | -0.96
RRIRSRPPRLPRPRPRPRHSPRP | -0.356
RRIRRRPPRLPRPRPRPHQCPRP | -0.0941
RRIRKRPPRLPRPRPRPMTWPRP | -0.00388
RRIRPRPPRLPRPRPRPIRIPRP | -0.149
RRIRWRPPRLPRPRPRPFVCPRP | -0.108
RRIRQRPPRLPRPRPRPLGSPRP | 0.0483
RRIRHRPPRLPRPRPRPRGQPRP | -0.0142

Sequence | shrunken log2 fold change
RRIRFRPPRLPRPRPRPGNHPRP | -0.0246
RRIRVRPPRLPRPRPRPSYWPRP | -0.341
RRIRCRPPRLPRPRPRPMNMPRP | -0.445
RRIRFRPPRLPRPRPRPFSRPRP | 0.184
RRIRMRPPRLPRPRPRPQVGPRP | 0.12
RRIRVRPPRLPRPRPRPNGKPRP | -0.407
RRIRHRPPRLPRPRPRPSGQPRP | -0.17
RRIRIRPPRLPRPRPRPYHMPRP | -0.123
RRIRERPPRLPRPRPRPVMGPRP | -0.123
RRIRHRPPRLPRPRPRPMNPPRP | -0.379
RRIRRRPPRLPRPRPRPRNTPRP | 0.436
RRIRSRPPRLPRPRPRPQIFPRP | 0.0933
RRIRNRPPRLPRPRPRPSNHPRP | -0.603
RRIRSRPPRLPRPRPRPIGWPRP | 0.142
RRIRARPPRLPRPRPRPWAHPRP | 0.0535
RRIRNRPPRLPRPRPRPAVYPRP | -0.0398
RRIRVRPPRLPRPRPRPHMWPRP | -0.49
RRIRERPPRLPRPRPRPLIEPRP | -0.287
RRIRERPPRLPRPRPRPNKAPRP | 0.12
RRIRRRPPRLPRPRPRPKCPPRP | 0.278
RRIRFRPPRLPRPRPRPWFCPRP | 3.7
RRIRPRPPRLPRPRPRPRDNPRP | -0.104
RRIRARPPRLPRPRPRPKGFPRP | 0.102
RRIRMRPPRLPRPRPRPQFKPRP | -0.138
RRIRHRPPRLPRPRPRPQGKPRP | -0.0805

Sequence | shrunken log2 fold change
RRIRRRPPRLPRPRPRPMLEPRP | 0.0718
RRIRGRPPRLPRPRPRPLFCPRP | 0.367
RRIRERPPRLPRPRPRPHEWPRP | -0.155
RRIRLRPPRLPRPRPRPIHCPRP | -0.0842
RRIRFRPPRLPRPRPRPTCRPRP | -0.0357
RRIRPRPPRLPRPRPRPLWMPRP | 0.0937
RRIRWRPPRLPRPRPRPIPRPRP | 0.0469
RRIRLRPPRLPRPRPRPGKFPRP | 0.117
RRIRIRPPRLPRPRPRPGQYPRP | -0.221
RRIRIRPPRLPRPRPRPLQEPRP | -0.0919
RRIRWRPPRLPRPRPRPWVVPRP | 1.61
RRIRVRPPRLPRPRPRPALMPRP | 0.193
RRIRQRPPRLPRPRPRPGDTPRP | -0.223
RRIRYRPPRLPRPRPRPGTLPRP | -0.803
RRIRCRPPRLPRPRPRPEDLPRP | 0.117
RRIRQRPPRLPRPRPRPYAPPRP | -0.505
RRIRKRPPRLPRPRPRPEPEPRP | 1.34
RRIRQRPPRLPRPRPRPHCNPRP | -0.11
RRIRHRPPRLPRPRPRPYGYPRP | -0.22
RRIRFRPPRLPRPRPRPLNTPRP | -0.483
RRIRYRPPRLPRPRPRPDTVPRP | 0.019
RRIRARPPRLPRPRPRPCYWPRP | -0.000727
RRIRDRPPRLPRPRPRPQCHPRP | -0.0594
RRIRYRPPRLPRPRPRPHKIPRP | -0.226
RRIRLRPPRLPRPRPRPPKKPRP | 0.265

Sequence | shrunken log2 fold change
RRIRQRPPRLPRPRPRPTKQPRP | 0.045
RRIRERPPRLPRPRPRPTMYPRP | -0.162
RRIRLRPPRLPRPRPRPYEMPRP | -0.468
RRIRFRPPRLPRPRPRPCQAPRP | -0.0302
RRIRTRPPRLPRPRPRPLPMPRP | -0.0573
RRIRERPPRLPRPRPRPYWVPRP | -0.338
RRIRTRPPRLPRPRPRPCTIPRP | -0.456
RRIRSRPPRLPRPRPRPTSGPRP | 0.194
RRIRQRPPRLPRPRPRPSTHPRP | -0.465
RRIRIRPPRLPRPRPRPCDTPRP | -0.387
RRIRVRPPRLPRPRPRPQLIPRP | -0.334
RRIRRRPPRLPRPRPRPVPVPRP | 0.128
RRIRERPPRLPRPRPRPKPLPRP | 0.104
RRIRCRPPRLPRPRPRPTMSPRP | -0.139
RRIRCRPPRLPRPRPRPQRYPRP | -0.105
RRIRIRPPRLPRPRPRPEIRPRP | -0.0172
RRIRERPPRLPRPRPRPERYPRP | -0.162
RRIRKRPPRLPRPRPRPLRKPRP | 0.968
RRIRWRPPRLPRPRPRPNNTPRP | -0.587
RRIRLRPPRLPRPRPRPALTPRP | 0.129
RRIRLRPPRLPRPRPRPMPAPRP | 0.221
RRIRNRPPRLPRPRPRPFFAPRP | 0.201
RRIRGRPPRLPRPRPRPTAYPRP | 0.656
RRIRWRPPRLPRPRPRPCWAPRP | 0.197
RRIRHRPPRLPRPRPRPIMSPRP | -0.161
